Patent US7307143 (MAX DELBR CK INSTITUT FUR MOLEKULARE HEDIZIN, dated 2007)

B1: conductin GSK 3b-binding domain (amino acids 343-396) (other)
chain: ANGQVSLPHFPRTHRLPKEMTPVEPAAFAAELISRLEKLKLELESRHSLEERLQ
notes: also called GSK BD
B2: conductin β-catenine binding domain (amino acids 397-465) (other)
chain: QIREDEEKEGSEQALSSRDGAPVQHPLALLPSGSYEEDPQTILDDHLSRVLKTPGCQSPGVGRYSPRSR
notes: also called b-BD
B3: conductin disheveled homology region (amino acids 783-833) (other)
chain: LTLGHFKEQLSKKGNYRYYFKKASDEFACGAVFEEIWDDETVLPMYEGRIL

Biological target: T1, Adenomatosis Polyposis Coli (APC) (UniProt P25054 2-2843, limits assumed)
T1 construct: Stands for 'APC' where the sentence names no fragment; also called tumor suppressor protein APC
Experiment: yeast 2-hybrid, partial pieces of conductin

T1 sequence (P25054 2-2843 limits assumed): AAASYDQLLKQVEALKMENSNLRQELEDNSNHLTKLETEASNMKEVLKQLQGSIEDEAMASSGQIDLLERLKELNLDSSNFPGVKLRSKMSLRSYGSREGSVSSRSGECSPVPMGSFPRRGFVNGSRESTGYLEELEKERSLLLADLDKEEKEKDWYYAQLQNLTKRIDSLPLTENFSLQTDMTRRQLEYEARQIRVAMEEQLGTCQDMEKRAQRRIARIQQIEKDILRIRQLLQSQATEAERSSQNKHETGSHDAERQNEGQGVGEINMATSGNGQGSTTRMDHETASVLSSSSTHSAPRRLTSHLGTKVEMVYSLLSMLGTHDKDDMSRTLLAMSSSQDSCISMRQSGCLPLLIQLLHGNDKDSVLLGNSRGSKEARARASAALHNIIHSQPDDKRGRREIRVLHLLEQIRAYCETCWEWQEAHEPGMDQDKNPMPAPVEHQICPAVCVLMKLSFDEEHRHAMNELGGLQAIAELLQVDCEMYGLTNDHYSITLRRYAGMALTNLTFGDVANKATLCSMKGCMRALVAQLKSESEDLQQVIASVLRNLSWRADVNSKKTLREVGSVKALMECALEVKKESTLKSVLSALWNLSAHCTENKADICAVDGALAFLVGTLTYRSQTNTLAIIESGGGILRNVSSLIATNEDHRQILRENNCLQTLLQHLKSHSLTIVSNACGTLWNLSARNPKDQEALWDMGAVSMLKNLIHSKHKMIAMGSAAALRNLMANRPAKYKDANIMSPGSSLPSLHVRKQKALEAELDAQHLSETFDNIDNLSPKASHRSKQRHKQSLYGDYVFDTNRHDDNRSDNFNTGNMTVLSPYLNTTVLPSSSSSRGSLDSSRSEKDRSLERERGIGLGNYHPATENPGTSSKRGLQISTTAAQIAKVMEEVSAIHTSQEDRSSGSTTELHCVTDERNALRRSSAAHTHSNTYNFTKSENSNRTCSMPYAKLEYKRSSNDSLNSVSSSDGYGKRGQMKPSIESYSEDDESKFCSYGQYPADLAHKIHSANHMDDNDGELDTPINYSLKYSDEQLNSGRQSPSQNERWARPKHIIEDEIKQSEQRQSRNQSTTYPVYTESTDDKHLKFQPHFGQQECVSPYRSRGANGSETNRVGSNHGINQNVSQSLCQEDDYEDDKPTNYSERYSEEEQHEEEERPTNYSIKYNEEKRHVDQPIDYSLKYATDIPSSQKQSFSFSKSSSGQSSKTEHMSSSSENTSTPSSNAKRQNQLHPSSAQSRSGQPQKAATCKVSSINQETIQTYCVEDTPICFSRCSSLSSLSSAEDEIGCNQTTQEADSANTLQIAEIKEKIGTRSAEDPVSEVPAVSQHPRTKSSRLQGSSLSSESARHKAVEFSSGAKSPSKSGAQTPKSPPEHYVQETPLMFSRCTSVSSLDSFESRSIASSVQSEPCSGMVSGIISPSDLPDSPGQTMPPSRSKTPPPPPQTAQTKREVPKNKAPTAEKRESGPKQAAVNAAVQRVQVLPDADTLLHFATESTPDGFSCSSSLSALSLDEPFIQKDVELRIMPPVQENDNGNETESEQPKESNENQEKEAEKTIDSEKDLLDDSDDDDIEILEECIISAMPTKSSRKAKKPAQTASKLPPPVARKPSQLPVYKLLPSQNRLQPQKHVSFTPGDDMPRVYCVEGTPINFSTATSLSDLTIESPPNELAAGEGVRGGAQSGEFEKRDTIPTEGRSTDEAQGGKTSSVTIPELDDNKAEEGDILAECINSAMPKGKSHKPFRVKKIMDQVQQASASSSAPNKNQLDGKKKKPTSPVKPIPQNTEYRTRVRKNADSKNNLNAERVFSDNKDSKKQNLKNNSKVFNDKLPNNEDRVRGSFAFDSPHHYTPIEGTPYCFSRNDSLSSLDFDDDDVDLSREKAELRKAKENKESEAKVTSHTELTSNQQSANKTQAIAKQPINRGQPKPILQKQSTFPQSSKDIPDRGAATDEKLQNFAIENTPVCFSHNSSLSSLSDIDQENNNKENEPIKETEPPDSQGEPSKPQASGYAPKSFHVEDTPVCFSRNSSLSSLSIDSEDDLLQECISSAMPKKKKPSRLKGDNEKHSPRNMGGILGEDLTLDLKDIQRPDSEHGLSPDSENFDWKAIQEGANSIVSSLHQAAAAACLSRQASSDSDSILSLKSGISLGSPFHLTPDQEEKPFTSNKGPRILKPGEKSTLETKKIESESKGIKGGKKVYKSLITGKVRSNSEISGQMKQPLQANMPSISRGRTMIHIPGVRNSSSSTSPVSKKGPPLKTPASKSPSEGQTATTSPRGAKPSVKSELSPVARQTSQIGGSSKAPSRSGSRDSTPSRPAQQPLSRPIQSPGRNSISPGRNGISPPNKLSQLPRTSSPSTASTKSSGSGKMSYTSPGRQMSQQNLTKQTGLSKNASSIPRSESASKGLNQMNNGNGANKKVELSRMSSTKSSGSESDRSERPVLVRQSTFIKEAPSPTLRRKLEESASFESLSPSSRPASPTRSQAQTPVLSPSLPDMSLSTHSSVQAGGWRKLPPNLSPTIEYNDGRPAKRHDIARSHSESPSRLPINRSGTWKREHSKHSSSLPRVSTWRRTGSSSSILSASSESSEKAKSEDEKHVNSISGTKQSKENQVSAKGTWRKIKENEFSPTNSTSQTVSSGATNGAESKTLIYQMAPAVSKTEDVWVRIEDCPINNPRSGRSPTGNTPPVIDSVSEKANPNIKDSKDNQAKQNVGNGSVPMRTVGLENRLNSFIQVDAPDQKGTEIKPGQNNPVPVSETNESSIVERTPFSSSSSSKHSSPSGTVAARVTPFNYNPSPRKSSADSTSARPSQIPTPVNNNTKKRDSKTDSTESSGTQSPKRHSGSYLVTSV

| Binder | binding result |
| --- | --- |
| B1 | no binding |
| B2 | no binding |
| B3 | no binding |
